Results: patent US20230090156A1 (NANYANG TECHNOLOGICAL UNIVERSITY, published 2023)
Residue numbers refer to the chain shown, from its start.

T1: human cANGPTL4 (C-terminal fragment of Angiopoietin-like 4 protein) (human, UniProt Q9BY76 186-406, limits assumed)
T1 construct: domain: C-terminal fragment (cANGPTL4); Purified cANGPTL4 was immobilised by amine coupling on the CM5 chip for SPR and on carboxylated microwell plates for ELISA; also called purified cANGPTL4; human cANGPTL4 antigen
T1 sequence (looked up): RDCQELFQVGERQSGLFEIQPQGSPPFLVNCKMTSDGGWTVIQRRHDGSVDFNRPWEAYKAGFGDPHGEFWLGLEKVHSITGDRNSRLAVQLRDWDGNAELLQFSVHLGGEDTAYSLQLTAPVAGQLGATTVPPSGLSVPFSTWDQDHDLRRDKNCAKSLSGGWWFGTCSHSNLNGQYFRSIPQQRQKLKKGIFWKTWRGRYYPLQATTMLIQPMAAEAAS

B1: Antuzumab 1 (antibody, V domains shown)
VH: QVTLKESGPTLVKPTQTLTLTCTFSGFSLSTSGMGVGWIRQPPGKALEWLAHIWWDDDKYYNPSLKSRLTISKDTSKNQVVLTMTNMDPVDTATYYCARKDYGSSYDYWGQGTTVTVSS
VL: DIVMTQSPLSLPVTPGEPASISCKASQSVDYDGDSYLNWYLQKPGQSPRLLIYTASNLESGVPDRFSGSGSGTDFTLKISRVEAEDVGVYYCFQSNEDPWTFGQGTKLEIK
notes: Humanized monoclonal antibody made in CHO cells; also called ANG49; ANGH3 + ANGK3
B2: Antuzumab 2 (antibody, V domains shown)
VH: B1 VH with V2I, S72T, V81D, N86F, V90W, R99H, T114L
VL: DIQMTQSPSSLSASVGDRVTITCKASQSVDYDGDSYLNWYQQKPGKAPNLLIYTASNLESGVPSRFSGSGSGTDFTLTISSLQPEDFATYYCQQSNEDPWTFGEGTKVEIK
notes: Humanized monoclonal antibody made in CHO cells; also called ANG50; ANGH4 + ANGK4
B3: Antuzumab 3 (antibody, V domains shown)
VH: B1 VH with V2I, S72T, T114L
VL: DIVMTQSPDSLAVSLGERATINCKASQSVDYDGDSYLNWYQQKPGQPPKLLIYTASNLESGVPDRFSGSGSGTDFTLTISSLQAEDVAVYYCQQSNEDPWTFGQGTKVEIK
notes: Humanized monoclonal antibody made in CHO cells; also called ANG27; ANGH1 + ANGK1
B4: murine monoclonal antibody mAb11F6C4 (antibody, V domains shown)
VH: QITLKESGPGILKPSQTLSLTCSFSGFSLSTSGMGVGWIRQPSGKGLEWLAHIWWDDDKYYNPSLKSQLTISKDTSRNQVFLKITSVDTADTATYYCARKDYGSSYDYWGQGTTLTVSS
VL: DIVLTQSPASLAVSLGQRATISCKASQSVDYDGDSYLNWFQQKPGQPPKLLIYTASNLESGIPARFSGSGSGTDFTLNIHPVEEEDAATYYCQQSNEDPWTFGGGTTLEIK
notes: Murine monoclonal antibody, the parent of the humanized antibodies; also called Control 11F6C4; original mouse-derived mAb

Each binder was assayed against T1, human cANGPTL4 (C-terminal fragment of …) (assay: SPR (BIACORE 3000), cANGPTL4 amine-coupled to CM5 chip, antibody as analyte).
Description: Surface Plasmon Resonance (SPR): Sensor CM5 chips and amine coupling kits were from GE Healthcare. Purified cANGPTL4 was immobilized onto a CM5-carboxylated dextran sensor chip by amine coupling using the Surface Prep Module of BIACORE 3000 as recommended by the manufacturer (BIAcore). Antuzumab (0.16, 0.32, 0.63, 1.25, 2.50, and 5.0 μm) diluted and buffered with 50 mm Tris, pH 8.0, was introduced into the cANGPTL4-conjugated CM5 chip at a flow rate of 5 μI/min for 10 min with running buffer (50 mm Tris, pH 8.0, 100 mm NaCl). After incubation for 45 s, the chamber was washed with the same buffer, and the bound molecules were subsequently eluted using 10 mm glycine, pH 6.0. The CM5 chip was reused after washing with running buffer for 10 min at 20 μI/min. Each sensorgram was corrected by subtracting a sensorgram obtained from a reference flow cell with no immobilized protein. Global fitting of the SPR data was used to determine the association (Kₐₛₛ) and dissociation (Kdiss) with Scrubber 2 software. Values are given as the mean±S.D. of three independent preparations of Antuzumab.

| Fold increase (affinity against control 11F6C4) [fold] | Kd [nM] | koff [s⁻¹] | kon [M⁻¹ s⁻¹] | Binder |
| --- | --- | --- | --- | --- |
| 7.86 | 1.05 | 0.000693 | 658000 | B1 |
| 5.37 | 1.54 | 0.000764 | 495000 | B2 |
| 1.85 | 4.47 | 0.000948 | 212000 | B3 |
| 1 | 8.28 | 0.000905 | 109000 | B4 |
